B1: Heat shock factor 1 (Hsf1) wild-type [human] / itself (parent)
chain: MDLPVGPGAAGPSNVPAFLTKLWTLVSDPDTDALICWSPSGNSFHVFDQGQFAKEVLPKYFKHNNMASFVRQLNMYGFRKVVHIEQGGLVKPERDDTEFQHPCFLRGQEQLLENIKRKVTSVSTLKSEDIKIRQDSVTKLLTDVQLMKGKQECMDSKLLAMKHENEALWREVASLRQKHAQQQKVVNKLIQFLISLVQSNRILGVKRKIPLMLNDSGSAHSMPKYSRQFSLEHVHGSGPYSAPSPAYSSSSLYAPDAVASSGPIISDITELAPASPMASPGGSIDERPLSSSPLVRVKEEPPSPPQSPRVEEASPGRPSSVDTLLSPTALIDSILRESEPAPASVTALTDARGHTDTEGRPPSPPPTSTPEKCLSVACLDKNELSDHLDAMDSNLDNLQTMLSSHGFSVDTSALLDLFSPSVTVPDMSLPDLDSSLASIQELLSPQEPPRPPEAENSSPDSGKQLVHYTAQPLFLLDPGSVDTGSNDLPVLFELGEGSYFSEGDGFAEDPTISLLTGSEPPKAKDPTVS

Variants of: B1
Test: nonreducing SDS-PAGE, quantification of higher-order oligomer bands
Conditions: with itself; purified Hsf1 mutants; means ± s.d. of three independent experiments; parent: 1; read off a plot
Work on MDLPVGPGAAGPSNVPAFLTKLWTLVSDPDTDALICWSPSGNSFHVFDQGQFAKEVLPKYFKHNNMASFVRQLNMYGFRKVVHIEQGGLVKPERDDTEFQHPCFLRGQEQLLENIKRKVTSVSTLKSEDIKIRQDSVTKLLTDVQLMKGKQECMDSKLLAMKHENEALWREVASLRQKHAQQQKVVNKLIQFLISLVQSNRILGVKRKIPLMLNDSGSAHSMPKYSRQFSLEHVHGSGPYSAPSPAYSSSSLYAPDAVASSGPIISDITELAPASPMASPGGSIDERPLSSSPLVRVKEEPPSPPQSPRVEEASPGRPSSVDTLLSPTALIDSILRESEPAPASVTALTDARGHTDTEGRPPSPPPTSTPEKSLSVASLDKNELSDHLDAMDSNLDNLQTMLSSHGFSVDTSALLDLFSPSVTVPDMSLPDLDSSLASIQELLSPQEPPRPPEAENSSPDSGKQLVHYTAQPLFLLDPGSVDTGSNDLPVLFELGEGSYFSEGDGFAEDPTISLLTGSEPPKAKDPTVS [chain 1 C373S C378S] yielded a ratio to parent of 1.4 AU. For MDLPVGPGAAGPSNVPAFLTKLWTLVSDPDTDALICWSPSGNSFHVFDQGQFAKEVLPKYFKHNNMASFVRQLNMYGFRKVVHIEQGGLVKPERDDTEFQHPCFLRGQEQLLENIKRKVTSVSTLKSEDIKIRQDSVTKLLTDVQLMKGKQESMDSKLLAMKHENEALWREVASLRQKHAQQQKVVNKLIQFLISLVQSNRILGVKRKIPLMLNDSGSAHSMPKYSRQFSLEHVHGSGPYSAPSPAYSSSSLYAPDAVASSGPIISDITELAPASPMASPGGSIDERPLSSSPLVRVKEEPPSPPQSPRVEEASPGRPSSVDTLLSPTALIDSILRESEPAPASVTALTDARGHTDTEGRPPSPPPTSTPEKCLSVACLDKNELSDHLDAMDSNLDNLQTMLSSHGFSVDTSALLDLFSPSVTVPDMSLPDLDSSLASIQELLSPQEPPRPPEAENSSPDSGKQLVHYTAQPLFLLDPGSVDTGSNDLPVLFELGEGSYFSEGDGFAEDPTISLLTGSEPPKAKDPTVS [chain 1 C153S], the ratio to parent was 0.46 AU. Work on MDLPVGPGAAGPSNVPAFLTKLWTLVSDPDTDALISWSPSGNSFHVFDQGQFAKEVLPKYFKHNNMASFVRQLNMYGFRKVVHIEQGGLVKPERDDTEFQHPSFLRGQEQLLENIKRKVTSVSTLKSEDIKIRQDSVTKLLTDVQLMKGKQECMDSKLLAMKHENEALWREVASLRQKHAQQQKVVNKLIQFLISLVQSNRILGVKRKIPLMLNDSGSAHSMPKYSRQFSLEHVHGSGPYSAPSPAYSSSSLYAPDAVASSGPIISDITELAPASPMASPGGSIDERPLSSSPLVRVKEEPPSPPQSPRVEEASPGRPSSVDTLLSPTALIDSILRESEPAPASVTALTDARGHTDTEGRPPSPPPTSTPEKCLSVACLDKNELSDHLDAMDSNLDNLQTMLSSHGFSVDTSALLDLFSPSVTVPDMSLPDLDSSLASIQELLSPQEPPRPPEAENSSPDSGKQLVHYTAQPLFLLDPGSVDTGSNDLPVLFELGEGSYFSEGDGFAEDPTISLLTGSEPPKAKDPTVS [chain 1 C36S C103S] yielded a ratio to parent of 1.1 AU.

From paper PMC11863153, “Mechanistic Insights Into Oxidative Response of Heat Shock Factor 1 Condensates” (JACS Au, 2025)
